These results are taken from paper PMC5832032, “Structural Basis for pH-Dependent Oligomerization of Dihydropyrimidinase from Pseudomonas aeruginosa PAO1” (Bioinorganic Chemistry and Applications, 2018).

The series concerns the molecule itself. Put plainly: SEC; Superdex 200 prep grade, purified protein 5 mg/mL in Buffer C (20 mM MES, 100 mM NaCl, pH 5.9), 0.5 mL/min; masses estimated against standard proteins; dimers and tetramers coexist.

Values joined by “and” are separate entries in the source; they are usually repeats but may differ in a detail not shown here. Identical values can stand only once.

B1: Pseudomonas aeruginosa PAO1 dihydropyrimidinase (enzyme)
chain: MSLLIRGATVVTHEESYRADVLCANGLIQAIGENLETPSGCDVLDGGGQYLMPGGIDPHTHMQLPFMGTVASEDFFSGTAAGLAGGTTSIIDFVIPNPRQSLLEAFHTWRGWAQKSAADYGFHVAITWWSDEVAREMGELVAQHGVNSFKHFMAYKNAIMAADDTLVASFERCLELGAVPTVHAENGELVFHLQQKLLAQGLTGPEAHPLSRPPQVEGEAASRAIRIAETLGTPLYLVHISSREALDEIAYARAKGQPVYGEVLAGHLLLDDSVYRHPDWATAAGYVMSPPFRPVEHQEALWRGLQSGNLHTTATDHCCFCAEQKAMGRDDFSKIPNGTAGIEDRMALLWDAGVNSGRLSMHEFVALTSTNTAKIFNLFPRKGAIRVGADADLVLWDPQGSRTLSAATHHQRVDFNIFEGRTVRGIPSHTISQGKLLWAAGDLRAEPGAGRYVERPAYPSVYEVLGRRAERQRPVAVER
modifications: carboxylated lysine in the active site (position not given)
notes: dihydropyrimidinase of Pseudomonas aeruginosa PAO1; two zinc ions per monomer in the active site; also called P. aeruginosa dihydropyrimidinase; pseudomonal dihydropyrimidinase
As to B1, the stoichiometry N (as a rule, the number of molecules, sites or subunits per partner or assembly) was 2 and 4.
